According to the supplement of paper PMC9732359:
± gives the uncertainty stated by the source.

Assay: protein stability index of a GFP-peptide fusion (yeast GPS) (PSI 1-4); higher = more stable; sorted into four equal gates, so the index is relative within each strain
Outline: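 Mid-log yeast cultures in leucine-free medium, carrying a pooled plasmid library, were sorted into four equal gates by their GFP/Cherry fluorescence ratio. Each plasmid expressed Cherry along with GFP fused upstream of a tiled 17-residue yeast protein peptide. Plasmids recovered from each gate were PCR-amplified and Illumina-sequenced, with reads assigned to strains by barcodes. The protein stability index was obtained by summing each gate's read frequency weighted by its gate number.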

Sequence	protein stability index (doa10∆)	protein stability index (pdr5∆)	protein stability index (san1∆)	protein stability index (ubr1∆)
HIKKLLHQYYGDDESKI [FAS1]	2.24 ± 0.084	2.9 ± 0.085	3.07 ± 0.074	3 ± 0.12
HILLTELLAYQFASPVR [FAS2]	1.81 ± 0.019	1.7 ± 0.018	1.81 ± 0.027	1.768 ± 0.017
HINSILLARVIQMNNSL [SNF11]	2.22 ± 0.13	1.94 ± 0.11	1.96 ± 0.12	1.7 ± 0.092
HIQVNQAPKQRRRTYRA [RPL17A]	1.89 ± 0.12	2.34 ± 0.11	2.38 ± 0.2	3.28 ± 0.14
HKLVFVVRIKGINKIPP [RPL7A]	1.4 ± 0.038	1.57 ± 0.046	1.52 ± 0.094	1.64 ± 0.053
HKMSMMAHRVKVIPYST [RPO21]	2.47 ± 0.065	2.64 ± 0.062	2.82 ± 0.079	2.44 ± 0.084
HKSDVMSVDIDKKASMI [ASC1]	3 ± 0.1	2.79 ± 0.083	2.48 ± 0.082	2.87 ± 0.11
HKVSSQSTNLNRSAKNS [YCS4]	2.24 ± 0.054	2.41 ± 0.05	2.38 ± 0.079	2.32 ± 0.05
HLELYTSQYGTPSTETA [PRE3]	1.39 ± 0.043	1.9 ± 0.04	1.44 ± 0.084	1.64 ± 0.037
HLGKGTMTMDVFNDAHV [RPN1]	2.96 ± 0.073	2.98 ± 0.084	2.06 ± 0.12	2.87 ± 0.081
HLLLGFQVSNVISLGPN [YJL039C/NUP192]	1.37 ± 0.052	1.75 ± 0.049	2.08 ± 0.088	1.8 ± 0.042
HLLRQTNAFLDSLTRAV [SNF2]	2.61 ± 0.061	2.6 ± 0.066	2.69 ± 0.044	2.65 ± 0.033
HLSKSPADRPQGRRNSR [SIR4]	2.79 ± 0.089	2.85 ± 0.067	2.75 ± 0.059	2.78 ± 0.058
HLVMRAISLGLLKGSID [RPN9]	2.04 ± 0.095	2.55 ± 0.14	1.58 ± 0.18	1.79 ± 0.16
HNHDTGCDENDSTVNKS [YDL088C/ASM4]	3.2 ± 0.09	3.2 ± 0.079	3.3 ± 0.057	3.05 ± 0.068
HNSHLSLNYKFTTNKSK [SRP21]	2.46 ± 0.073	2.07 ± 0.052	2.38 ± 0.076	2.41 ± 0.05
HPLHELIIQYPPNNARR [ISW2]	3.06 ± 0.065	2.88 ± 0.056	2.73 ± 0.052	3 ± 0.047
HPPFIKYACLAIRKNGQ [SIN4]	1.45 ± 0.042	1.51 ± 0.039	1.68 ± 0.065	1.42 ± 0.031
HQNESSAASIPPQQTYH [RPN4]	2.57 ± 0.054	2.89 ± 0.074	2.53 ± 0.066	2.69 ± 0.057
HQQQQQQQQQQQQQQQQ [SNF5]	2.78 ± 0.056	2.88 ± 0.049	2.88 ± 0.056	2.93 ± 0.055
HRASPADVSIKSILQEI [POP5]	3.11 ± 0.26	3.27 ± 0.1	2.95 ± 0.12	
HRINMDKYHPGYFGKVG [RPL28]	3.4 ± 0.074	3.41 ± 0.059	3.24 ± 0.061	3.24 ± 0.068
HSFAVLLHERKLLNDLA [NUT1]	2.68 ± 0.049	2.49 ± 0.057	2.46 ± 0.086	2.71 ± 0.036
HSLSQAIKWDGSSGGVI [PRE3]	3.69 ± 0.28	3.27 ± 0.21	2.67 ± 0.21	
HTEDESTKELKFSDIIQ [BRN1]	3.11 ± 0.2	2.89 ± 0.21	3.23 ± 0.22	3.41 ± 0.094

Sequence	protein stability index (doa10∆)	protein stability index (pdr5∆)	protein stability index (san1∆)	protein stability index (ubr1∆)
HTIFSDVCKTRFNHLVT [YML031W/NDC1]	2.27 ± 0.045	2.09 ± 0.044	2.15 ± 0.051	2.04 ± 0.034
HTSIRETLENGETRMKM [SMC2]	2.65 ± 0.11	2.79 ± 0.13	2.85 ± 0.12	2.95 ± 0.083
HTVTNSPNPTLQPVIPG [SNF5]	2.55 ± 0.052	2.32 ± 0.049	2.53 ± 0.052	2.78 ± 0.042
HVKRITKIAQSQTMAET [ECM29]	2.33 ± 0.057	2.46 ± 0.036	2.02 ± 0.061	2.07 ± 0.033
HVLKKNPLKNKQVLLRL [RPL4A]	1.43 ± 0.15	1.79 ± 0.086	1.3 ± 0.13	2.38 ± 0.088
HVLVGDLIKFSAETLSE [FAS1]	2.38 ± 0.1	2.78 ± 0.1	2.67 ± 0.1	2.79 ± 0.089
IAAKLINSGLYSVLLES [YML103C/NUP188]	2.54 ± 0.099	2.08 ± 0.099	2.7 ± 0.076	2.67 ± 0.095
IAAKTHILRISFLDRKR [SIN4]	2.53 ± 0.1	2.65 ± 0.09	1.84 ± 0.073	2.42 ± 0.049
IAEGKSKQDASPKPYAV [RPL8B]	3.02 ± 0.077	3.38 ± 0.063	3.12 ± 0.06	3.23 ± 0.049
IAINFTVNHSEKFPNDV [RPP1]	2.68 ± 0.068	2.87 ± 0.047	2.95 ± 0.051	3.02 ± 0.058
IALLTLKESVEGEFNGD [PRE8]	2.77 ± 0.21	2.77 ± 0.17	2.64 ± 0.15	2.75 ± 0.11
IASDGSYVNYRHMALLV [RPO21]	1.68 ± 0.055	1.89 ± 0.051	1.35 ± 0.067	1.59 ± 0.038
IASEVLIKQVPRLLGPQ [RPL1A]	2.28 ± 0.13	1.87 ± 0.14	2.27 ± 0.15	1.67 ± 0.068
IATGCKDGRIRIFKITE [YGL100W/SEH1]	2.22 ± 0.069	2.47 ± 0.066	2.21 ± 0.094	2.43 ± 0.046
ICGYTRKEGPTIYYVDS [PRE2]	3.36 ± 0.095	3.24 ± 0.081	3.42 ± 0.042	2.84 ± 0.069
ICNPVHKHREARGLTAT [RPL15B]	2.81 ± 0.078	2.52 ± 0.082	2.59 ± 0.092	2.42 ± 0.062
ICYNKKTEYVLNDLNHL [REC8]	1.8 ± 0.19	1.75 ± 0.091	1.68 ± 0.21	1.88 ± 0.19
IDATLKEELLRDGVLTV [RRP45]	1.8 ± 0.047	1.92 ± 0.05	2 ± 0.081	2.04 ± 0.045
IDDKTQNDELTMGMRAL [DIS3]	2.74 ± 0.083	2.83 ± 0.068	2.87 ± 0.058	3 ± 0.059
IDDVQTIKVVKRSMDAE [RPP1]	3.18 ± 0.054	2.89 ± 0.057	3.06 ± 0.039	3 ± 0.051
IDHSDESNRQSVIVDSK [ESC2]	3.18 ± 0.13	3.27 ± 0.077	3.08 ± 0.093	3.51 ± 0.15
IDIPLDEQAFYNKDKAE [RPC37]	3.27 ± 0.18	3.38 ± 0.18	2.85 ± 0.24	3.26 ± 0.14
IDNGAESSENEAEDDDN [RPC53]	3.33 ± 0.14	3.62 ± 0.17	3.15 ± 0.11	2.81 ± 0.16
IDWASPEYGRIIASASY [YGL100W/SEH1]	2.8 ± 0.064	3.16 ± 0.053	3.09 ± 0.054	2.71 ± 0.055
IDYLQRNDKTLELMDSK [POP1]	3.06 ± 0.096	3.19 ± 0.14	2.64 ± 0.25	3.24 ± 0.14
